This is an account of results in patent publication US20250019446A1 (SHANGHAI SINOBAY BIOTECHNOLOGY, published 2025).

For assay [1], the target named is T1, human recombinant AXL protein, extracellular domain (hAXL-ECD) (human, UniProt P30530 26-451).
T1 construct: extracellular domain; Bought protein; also called antigen hAXL-ECD; hAXL-ECD protein
T1 sequence (looked up): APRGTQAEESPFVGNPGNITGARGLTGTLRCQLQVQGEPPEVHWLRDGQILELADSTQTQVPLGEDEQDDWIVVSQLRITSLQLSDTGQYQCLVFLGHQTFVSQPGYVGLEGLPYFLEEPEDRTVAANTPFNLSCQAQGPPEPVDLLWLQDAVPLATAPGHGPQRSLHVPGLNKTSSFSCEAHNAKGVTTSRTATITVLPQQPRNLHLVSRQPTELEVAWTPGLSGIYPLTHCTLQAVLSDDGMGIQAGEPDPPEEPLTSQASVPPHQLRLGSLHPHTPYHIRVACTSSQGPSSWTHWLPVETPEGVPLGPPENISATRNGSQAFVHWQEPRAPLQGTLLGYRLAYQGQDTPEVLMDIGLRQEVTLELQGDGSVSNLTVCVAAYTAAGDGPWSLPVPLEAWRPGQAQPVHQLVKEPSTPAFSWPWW
Description: ELISA, Fab supernatant on coated hAXL-ECD, OD450; unit inferred, unit taken from the concentration axis. As to the method: Clones from the third round of selection were first picked up in a 96-well deep-well plate containing 300 μL of 2-YT medium and incubated overnight at 37° C. The supernatant, which contained the expressed Fab, was taken, diluted in a gradient, and added to an ELISA plate coated with 2 μg/mL of hAXL-ECD. HRP-labeled goat anti-human Fab was used as the secondary antibody (goat anti-human-HRP, ThermnoFisher, 31482, 1:6000 dilution) for detection. A higher signal value indicated a stronger affinity.
For orientation: In an ELISA, binding on a coated surface is turned into a signal by an enzyme label.

Assay [2] has as its target T2, AXL on CHO-AXL cells (human, UniProt P30530 26-894).
T2 construct: whole, on cells; The construct in the CHO-AXL cells is not described
T2 sequence (looked up): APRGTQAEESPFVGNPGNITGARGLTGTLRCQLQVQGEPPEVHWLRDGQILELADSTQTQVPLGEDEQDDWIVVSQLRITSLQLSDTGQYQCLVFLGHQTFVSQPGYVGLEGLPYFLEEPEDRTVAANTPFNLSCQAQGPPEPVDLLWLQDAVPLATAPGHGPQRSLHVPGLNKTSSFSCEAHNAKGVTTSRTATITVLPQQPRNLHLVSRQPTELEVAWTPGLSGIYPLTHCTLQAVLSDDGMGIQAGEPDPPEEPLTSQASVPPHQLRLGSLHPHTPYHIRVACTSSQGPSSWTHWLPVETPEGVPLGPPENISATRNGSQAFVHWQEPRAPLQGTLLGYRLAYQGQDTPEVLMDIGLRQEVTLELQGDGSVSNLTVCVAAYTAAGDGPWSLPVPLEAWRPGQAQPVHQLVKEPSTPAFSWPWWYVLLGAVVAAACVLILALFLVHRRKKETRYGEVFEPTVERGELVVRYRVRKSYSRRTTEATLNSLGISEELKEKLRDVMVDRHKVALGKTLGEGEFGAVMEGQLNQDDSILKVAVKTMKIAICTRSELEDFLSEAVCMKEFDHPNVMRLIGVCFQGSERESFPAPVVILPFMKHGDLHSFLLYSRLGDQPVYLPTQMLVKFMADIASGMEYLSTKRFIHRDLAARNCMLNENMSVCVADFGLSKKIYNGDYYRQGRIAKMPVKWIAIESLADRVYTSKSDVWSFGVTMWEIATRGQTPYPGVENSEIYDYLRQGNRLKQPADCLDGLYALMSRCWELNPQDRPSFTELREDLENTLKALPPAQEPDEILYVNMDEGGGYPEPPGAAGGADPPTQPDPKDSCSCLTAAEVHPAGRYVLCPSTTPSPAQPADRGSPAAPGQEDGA
Description: flow cytometry on CHO-AXL cells, pH 6.0 against pH 7.4. The method, then: (§1) The affinity of the candidate antibody for specific binding to hAXL-ECD was detected by flow cytometry. A total of 4 clones of Hu001-5, Hu001-7, Hu001-11, and Hu001-14 were tested under acidic (pH=6.0) and neutral (pH=7.4) conditions, respectively.
(§2) CHO-AXL cells (constructed by Shanghai Sinobay Biotechnology Co. Ltd.) were cultured in a cell culture flask in DMEM/F-12 medium (10% FBS, 1% penicillin/streptomycin). After 48 hours of culture at 37° C. in an incubator containing 5% CO₂, the supernatant was discarded. The cells were collected by digestion with 0.25% trypsin and centrifuged at 800 g for 3 minutes. The supernatant was discarded and the cells were resuspended (10⁶/mL) in 2% FBS Wash Buffer. The pH of the buffer was adjusted and the cells were divided into pH6.0 and pH7.4 groups, and primary antibodies (Hu001-5 antibody, Hu001-7 antibody, Hu001-11 antibody, Hu001-14 antibody, and positive control antibody CCT301-38) were added to each group and incubated for 15 minutes at room temperature. The supernatant was discarded. Fluorescent-labeled secondary antibody IgG-Fc-PE (BioLegend, cat. No. 409304) was added and incubation was continued at room temperature for 15 min in the dark. Then, the detection was performed on the machine. A higher signal value can indicate a stronger affinity. […]
(In general: Flow cytometry measures light scatter and fluorescence of single cells or particles in a stream.)

For assay [3], the target named is T2, AXL on CHO-AXL cells. The experiment in a line: flow cytometry on CHO-AXL cells, pH 6.0 and pH 7.4, IgG-Fc-PE secondary antibody. As to the method:
as §1, §2

Where a chain is given by its changes, count along the chain named.

B1: Hu001-14 Fab (clone 14, expressed in clone supernatant) (Fab, V domains shown)
VH: EVQLVQSGAEVKKPGASVKVSCKASGYTFTSYYMHWVRQAPGQGLEWMGIINPSGGSTSYAQKFQGRVTMTRDTSTSTVYMELSSLRSEDSAVYYCARDWYFDVWGAGTTVTVSA
VL: NIQMTQSPSSVSASVGDRVTITCRASQGISSWLAWYQQKPGKAPKLLIYAASSLQSGVPSRFSGSGSGTDFTLTISSLQPEDFATYYCQQANSFPFTFGGGTKVEIK
notes: Fab from the phage library clone, tested as bacterial culture supernatant
With B1, the EC50 in assay [1] was 0.274 µg/mL.

B2: Hu001-7 Fab (clone 7, expressed in clone supernatant) (Fab, V domains shown)
VH: QVQLVQSGAEVKKPGSSVKVSCKASGGTFSSYAISWVRQAPGQGLEWMGGIIPIFGTANYAQKFQGRVTITADESTSTAYMELSSLRSEDTAVYYCAKDIVSRVRGELVGGYYYFGLDVWGQGTTVTVSA
VL: NIQLTQSPSSLSASVGDRVTITCRASQTISSYLNWYQQKPGKAPKLLIYAASRLQSGVPSRFSGSGSGTDFTLTISSLQPEDFATYYCQQSYSTPRTFGQGTKVEIK
notes: as for B1
As for B2, the EC50 in assay [1] was determined as 0.214 µg/mL.

B3: Hu001-5 antibody (full-length human IgG1, kappa) (antibody, V domains shown)
VH: QVQLLESGGGVVQPGRSLRLSCAASGFTFSSYGMHWVRQAPGKGLEWVAVISYDGSNKYYADSVKGRFTISRDNSKNTLYLQMNSLRAEDTAVYYCAKDQVLAPVGGGLFDYWGQGTLVTVSA
VL: B2 VL with N1D, T28S, S31T, K45E, L46S, Y49F, R53S, Q55A, Q100P
notes: built as human IgG1 with kappa light chain in vectors AbVec-hIgG1 WT and AbVec-hIgKappa, expressed in Expi293 cells; also called anti-AXL antibody Hu001-5
For B3, in the assay with AXL on CHO-AXL cells [2], the “fold of mean fluorescence intensity under the acidic condition against the neutral condition” value is about 1.5 fold. Also, in the assay with AXL on CHO-AXL cells [3], the “fold of mean fluorescence intensity against the positive control CCT301-38” value is about 4 fold.

B4: Hu001-5 Fab (clone 5, expressed in clone supernatant) (Fab, V domains shown)
VH: B3 VH
VL: B2 VL with N1D, T28S, S31T, K45E, L46S, Y49F, R53S, Q55A, Q100P
notes: as for B1
As for B4, the concentration for a half-maximal effect (EC50) in assay [1] was 0.292 µg/mL.

B5: Hu001-11 Fab (clone 11, expressed in clone supernatant) (Fab, V domains shown)
VH: QVQLLESGGGVVQPGRSLRLSCAASGFTFSSYGMHWVRQAPGKGLEWVAVISYDGSNKYYADSVKGRFTISRDNSKNTLYLQMNSLRAEDTAVYYCAKYGSSGPYWYFDLWGQGTLVTVSA
VL: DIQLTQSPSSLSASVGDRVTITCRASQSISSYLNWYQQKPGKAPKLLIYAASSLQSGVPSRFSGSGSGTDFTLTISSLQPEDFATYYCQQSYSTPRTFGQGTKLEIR
notes: as for B1
As to B5, the EC50 in assay [1] was determined as 0.14 µg/mL.

B6: Hu001-11 antibody (full-length human IgG1, kappa) (antibody, V domains shown)
VH: B5 VH
VL: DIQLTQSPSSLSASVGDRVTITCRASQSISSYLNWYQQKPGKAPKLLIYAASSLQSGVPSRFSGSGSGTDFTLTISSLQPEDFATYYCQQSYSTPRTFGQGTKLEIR
notes: built as human IgG1 with kappa light chain in vectors AbVec-hIgG1 WT and AbVec-hIgKappa, expressed in Expi293 cells; also called anti-AXL antibody Hu001-11
B6: the “fold of mean fluorescence intensity under the acidic condition against the neutral condition” value in the assay with AXL on CHO-AXL cells [2] was about 1.5 fold. The “fold of mean fluorescence intensity against the positive control CCT301-38” value with AXL on CHO-AXL cells [3] is about 4 fold.

What is called EC50 is the concentration giving half of the maximal effect.
